In patent publication US20250052758A1 (PIERRE FABRE MEDICAMENT, published 2025):

Target: T1, P-selectin glycoprotein ligand 1 (PSGL-1) expressed by cells (naive human T cells, HL-60 cells, PBMCs) (human, UniProt Q14242 42-412)
T1 construct: also called SELPLG; CD162
T1 sequence: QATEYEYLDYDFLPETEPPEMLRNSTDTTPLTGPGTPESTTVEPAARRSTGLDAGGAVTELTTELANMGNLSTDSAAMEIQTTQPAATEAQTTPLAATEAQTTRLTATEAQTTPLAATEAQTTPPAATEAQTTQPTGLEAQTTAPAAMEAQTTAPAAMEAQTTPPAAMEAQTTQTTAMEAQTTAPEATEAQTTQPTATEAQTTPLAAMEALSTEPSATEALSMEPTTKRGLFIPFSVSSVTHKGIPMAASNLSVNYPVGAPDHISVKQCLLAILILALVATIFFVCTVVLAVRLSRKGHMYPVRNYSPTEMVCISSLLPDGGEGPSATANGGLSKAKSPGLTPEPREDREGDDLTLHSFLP
Experiment: CAPTIREC/TRICEPS ligand-receptor capture on naive human T cells, LC-MS/MS; enrichment against the anti-CD28 antibody control
Protocol: An overview of the […]™ procedure is outlined in FIG. 1. Briefly, the VISTA-Fc fusion protein and the anti-CD28 antibody were separately coupled with TRICEPS™ Naïve human T cells were isolated from commercially available primary human T cells. The surface glycoproteins of the naïve T cells were selectively oxidized. Ligand binding and receptor coupling to the cell surface of the oxidized naïve T cells was performed. The reacted T cells were then lysed and the resulting lysate was affinity purified for the ligand-receptor protein complexes. The purified proteins where then cleaved by trypsin digestion, thereby releasing receptor peptides. The resulting receptor peptides were analyzed by liquid chromatography-tandem mass spectrometry (LC-MS/MS). […]
The resulting receptor peptides were analyzed by LC-MS/MS on a Thermo LTQ Orbitrap XL spectrometer fitted with an electrospray ion source. The samples were measured in data dependent acquisition mode in a 120 min gradient using a 10 cm C18 packed column. Six individual samples in the […]™ dataset were analyzed with a statistical ANOVA model. […]
Peptide identifications were filtered to an FDR of <=1% and quantified using an MS1-based label-free approach. For the MS1 quantification, the nonlinear DYNAMICS Progenesis QI for proteomics software was used, set to consider all unique peptides. […]

Log2 FC: 2.33 log2 fold change
B1: VISTA-Fc fusion protein (Fc fusion)
chain: FKVATPYSLYVCPEGQNVTLTCRLLGPVDKGHDVTFYKTWYRSSRGEVQTCSERRPIRNLTFQDLHLHHGGHQAANTSHDLAQRHGLESASDHHGNFSITMRNLTLLDSGLYCCLVVEIRHHHSEHRVHGAMELQVQTGKDAPSNCVVYPSSSQDSENIRSVECPPCPAPPVAGPSVFLFPPKPKDTLMISRTPEVTCVVVDVSHEDPEVKFNWYVDGVEVHNAKTKPREEQYNSTYRVVSVLTVLHQDWLNGKEYKCKVSNKGLPSSIEKTISKAKGQPREPQVYTLPPSREEMTKNQVSLTCLVKGFYPSDIAVEWESNGQPENNYKTTPPVLDSDGSFFLYSKLTVDKSRWQQGNVFSCSVMHEALHNHYTQKSLSLSPGK
